The text below walks through data of publication doi:10.1101/2025.03.13.642734.

This experiment has as its target ExsA-His6 (Pseudomonas aeruginosa) (UniProt P26993).
Chain of UniProt P26993 (P26993 whole entry): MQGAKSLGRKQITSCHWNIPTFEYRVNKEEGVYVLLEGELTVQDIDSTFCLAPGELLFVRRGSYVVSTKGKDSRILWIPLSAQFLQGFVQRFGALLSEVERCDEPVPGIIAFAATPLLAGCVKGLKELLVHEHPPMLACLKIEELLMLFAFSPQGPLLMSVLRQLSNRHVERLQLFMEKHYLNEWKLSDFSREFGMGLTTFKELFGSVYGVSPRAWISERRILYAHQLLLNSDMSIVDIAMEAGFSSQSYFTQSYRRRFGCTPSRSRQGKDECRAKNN

In the case of GST-Dap2 (natural protein), the EMSA: ExsA-exsC promoter DNA complex with increasing concentrations of GST-Dap2 was 1 µM.
